Reference: patent US20040132130

System: Ac-Ala-Ala-Pro-Thr(Man)-Pro-Val-Ala-Ala-Pro-NH2

His-Xpress-sOMGnT(L), sequence (chain, as listed by the source): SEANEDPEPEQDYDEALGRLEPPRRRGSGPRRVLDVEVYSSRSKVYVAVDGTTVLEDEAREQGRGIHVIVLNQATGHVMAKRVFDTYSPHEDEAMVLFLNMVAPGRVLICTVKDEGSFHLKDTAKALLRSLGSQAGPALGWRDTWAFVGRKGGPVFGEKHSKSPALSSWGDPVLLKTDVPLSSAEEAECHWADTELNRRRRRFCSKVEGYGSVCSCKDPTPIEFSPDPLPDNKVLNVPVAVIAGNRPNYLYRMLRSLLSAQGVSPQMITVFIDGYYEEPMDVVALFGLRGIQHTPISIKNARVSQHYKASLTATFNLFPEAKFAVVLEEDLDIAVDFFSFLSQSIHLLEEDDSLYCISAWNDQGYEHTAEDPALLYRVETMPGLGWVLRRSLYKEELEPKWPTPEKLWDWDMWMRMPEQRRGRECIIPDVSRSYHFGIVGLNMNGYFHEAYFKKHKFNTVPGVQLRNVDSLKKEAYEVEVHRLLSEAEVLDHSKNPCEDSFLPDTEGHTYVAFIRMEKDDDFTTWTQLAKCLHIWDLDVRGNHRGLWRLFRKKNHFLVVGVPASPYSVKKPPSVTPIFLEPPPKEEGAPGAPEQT

In the case of His-Xpress-sOMGnT(L), the Km value is reported as 1850 µM, the OMGnT activity (pmol/hr/mg protein) (pmol/hr/mg protein) is reported as 15 and the OMGnT relative activity (%) is reported as 100%.
